Source: patent US20230310702A1, “SELF-ASSEMBLING PEPTIDES, PREPARATION METHODS, SELF-ASSEMBLING PEPTIDE FORMULATIONS AND USE” (Success Bio-Tech Co., Ltd., priority 2020, published 2023)
Entries after “also recorded” stand apart in the source; their conditions may differ.

Key:
[1] = Fluidity / viscosity of peptide solutions on dissolution (observation); type: physicochemical; details: for viscosity during dissolution: with increasing concentration
Protocol: (§1) Peptide solutions with different concentrations were prepared, and an appropriate amount of 10×PBS was added such that the final PBS concentration of the solution was 1×, after the solution was in contact with PBS to be triggered to be gel, the gel was taken out slowly with a spoon and placed onto a rheometer plate. A 40 mm plate was placed leaving the gap of about 450 µm, and kept at 37° C. for 5 minutes under a pressure of 1 pa, and frequency scanning was at 0.1 hz-10 hz. […] The highest concentration of the solution was set with the reference to the highest concentration at which a gel will not form immediately when the peptide was fully dissolved, according to which peptide solutions with a serial of diluted concentrations were prepared to perform storage modulus detections. For peptides represented by ① and ② in which the head and the tail are Pro, the storage modulus were able to reach 1000pa or higher after the PBS triggered the gelation, whereas before gelation, the solution can also maintain good fluidity.

[2] = Viscosity testing of peptide solution (rheometer); type: physicochemical; details: shear rate 10 1/s
Protocol: A peptide solution was prepared, a 50 mm plate was chosen for the rheometer, a 1 mm gap was set, and 2 ml of the peptide solution was taken, and placed in the gap under the plate. The shear rate was set as 10 1/s. Average values were recorded.

[3] = Rheological property detection (storage modulus of triggered gel); type: physicochemical; details: concentration of 2.5%; after contact with a metallic ion or change pH value
Protocol: as §1

[4] = tested on: rabbit back skin wound; experiment: Rabbit hemostasis experiment on the back; type: in vivo, New Zealand rabbits
Protocol: Hemostatic procedures: a peptide aqueous solution ① with a concentration of 3% was prepared for rabbit hemostasis on the back. After injection of anesthesia via ear veins in New Zealand rabbits, a skin incision of about 1.5 cm was made on the back, and an incision depth was made until a blood vessel ruptured, and blood flowed out. After the blood flowed out was wiped off with a gauze, the peptide aqueous solution was sprayed onto a wound site immediately, and timing was conducted. In the hemostatic process, oozed blood was wiped constantly with a gauze, until no blood flowed out, and the timing was stopped, and after 1 minute, excess gel was removed, and the wound was observed whether the blood further oozed out.

[5] = tested on: colonic mucosa (submucosal layer); experiment: Colonic submucosal injection of rabbits; type: in vivo, New Zealand rabbit; details: 0.5 ml injected, 25G needle, observed 30 min; colon
Protocol: A New Zealand rabbit was fastened for 24 hours, injection of anesthesia was conducted via the ear vein, the abdomen was then opened, afterwards an open cutting was conducted along a midline of a colon to expose the colonic mucosa, 0.5 ml of normal saline was injected into the submucosal layer using a 25G needle. After observing for 30 min, the rabbit was sacrifice, a tissue was then taken out and fixed in formalin for 2 days, embedded by paraffin, sectioned, and finally stained with hematoxylin and eosin (FIG. 9B). 0.5 ml of a 10 mg/ml sodium hyaluronate solution (FIG. 9C) and 0.5 ml of a 3% peptide aqueous solution ① (FIG. 9D) were injected by the same method. An untreated normal tissue was used as a control (FIG. 9A).

[6] = tested on: liver wound; experiment: Rabbit liver hemostasis experiment; type: in vivo
Protocol: Hemostatic process: a peptide aqueous solution ① with a concentration of 3% was prepared, abdomen was opened after anesthesia of the rabbit, liver was exposed, and after the hepatic vessel was lacerated, the blood flowed out. After the blood flowed out was wiped off with a gauze, the peptide aqueous solution was sprayed onto the wound site immediately, and timing was conducted.

[7] = tested on: stomach mucosa (posterior submucosal layer); experiment: Rabbit stomach submucosal injection; type: in vivo, New Zealand rabbit; details: 0.5 ml injected, 25G needle, observed 30 min
Protocol: After a New Zealand rabbit was fastened for 24 hours, injection anesthesia was conducted from the ear vein, the abdomen was then opened, afterwards a stoma was made in the anterior wall of the stomach to expose a stomach mucosa, and 0.5 ml of normal saline was injected into a posterior submucosal layer using a 25G needle. After being observed for 30 min, the rabbit was sacrificed, a tissue was then taken out and fixed in formalin for 2 days, embedded by paraffin, sectioned, and finally stained with hematoxylin and eosin (FIG. 8A). 0.5 ml of a 10 mg/ml sodium hyaluronate solution (FIG. 8B) and 0.5 ml of a 3% peptides ① water solution (FIG. 8C) were injected by the same method.

[8] = 3% peptide aqueous solution sprayed onto liver wound

AC-Arg-Ala-Asp-Ala-Arg-Ala-Asp-Ala-Arg-Ala-Asp-Ala-Arg-Ala-Asp-Ala- amide [compound ⑤]
fluidity of solution ([1]; concentration of 2.5%): almost lost fluidity | viscosity during dissolution [1]: increased with the increase of the concentrations | Viscosity ([2]; concentration 1%): 955.17 mPa·s | Viscosity ([2]; concentration 1%, listed as AC-(RADA)4-amide): high viscosity; also recorded: high viscosities | Viscosity ([2]; concentration 2%): 1817.96 mPa·s | Viscosity ([2]; concentration 2.5%): 2514.57 mPa·s | storage modulus [3]: less than 700 pa

AC-Arg-Val-Asp-Val-Arg-Val-Asp-Val-amide (Ac-RVDVRVDV-NH2) [comparison peptide without Pro in the viscosity test]
Viscosity ([2]; concentration 1%): 658.25 mPa·s | Viscosity ([2]; concentration 1%, listed as AC-RVDVRVDV-amide): high viscosities | Viscosity ([2]; concentration 2%): 1546.21 mPa·s

AC-Pro-Arg-Val-Asp-Val-Arg-Pro-Asp-Val-Arg-Val-Asp-Pro-amide (Ac-PRVDVRPDVRVDP-NH2) [compound ④]
viscosity during dissolution [1]: increased with the increase of the concentrations

AC-Pro-Arg-Val-Asp-Val-Arg-Val-Asp-Pro-amide (Ac-PRVDVRVDP-NH2) [compound ①]
fluidity of solution ([1]; before gelation): good fluidity | time until no blood flowed out ([4]; 3% peptide aqueous solution sprayed onto back skin incision): about 20 s | gel formation on the wound ([4]; 3% peptide aqueous solution sprayed onto back skin wound): formed immediately | bleeding after hydrogel covering the surface was removed ([4]; 3% peptide aqueous solution, back skin wound): no blood oozed out | submucosal filling (hematoxylin and eosin staining) [5]: filled with the peptide gel | gel formation on contact with blood [6, 8]: formed immediately | time until bleeding completely stopped [6, 8]: about 15 s | hemostasis after excess hydrogel was removed ([6]; 3% peptide aqueous solution, liver wound): hemostasis still obtained | Viscosity ([2]; concentration 3%): Under the detection limit | Viscosity ([2]; concentration 4%): No viscosity numerical value was detected; also recorded: Under the detection limit | submucosal cushion layer (hematoxylin and eosin staining) [7]: fine and tight, and not loose

AC-Pro-Arg-Val-Asp-Val-Arg-Val-Asp-Val-amide (Ac-PRVDVRVDV-NH2) [compound ③]
viscosity during dissolution [1]: increased with the increase of the concentrations

AC-Pro-Lys-Val-Glu-Val-Lys-Val-Glu-Pro-amide (Ac-PKVEVKVEP-NH2) [compound ②]
fluidity of solution ([1]; before gelation): good fluidity | Viscosity ([2]; concentration 3%): Under the detection limit | Viscosity ([2]; concentration 4%): No viscosity numerical value was detected; also recorded: Under the detection limit
